We go through three molecules from article PMC6053527 (Frontiers in Plant Science, 2018).

Data set [1] addresses T1, SyMDH (Synechocystis sp. PCC 6803, UniProt Q55383).
T1 construct: gene mdh; full ORF in pGEX5X-1, N-terminal GST tag kept, E. coli expression, glutathione-Sepharose purification
T1 sequence (Q55383 1-324): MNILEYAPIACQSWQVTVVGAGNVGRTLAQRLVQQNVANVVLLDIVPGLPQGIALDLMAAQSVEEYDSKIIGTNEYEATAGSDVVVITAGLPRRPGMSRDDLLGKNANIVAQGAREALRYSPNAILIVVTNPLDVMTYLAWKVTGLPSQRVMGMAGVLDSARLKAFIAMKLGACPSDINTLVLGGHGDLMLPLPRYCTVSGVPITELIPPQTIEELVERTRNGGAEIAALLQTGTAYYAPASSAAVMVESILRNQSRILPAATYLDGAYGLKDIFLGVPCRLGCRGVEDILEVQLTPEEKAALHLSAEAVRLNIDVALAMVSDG
As to the kind of experiment: spectrophotometric assay at […] nm with effector. The following applies: read-out: % activity at 1 mM. The class given is biochemical.

In data set [2] the target is T1, SyMDH. Kind of data set: spectrophotometric assay at […] nm; fit to modified Michaelis-Menten equation. The class given is biochemical. As to conditions: substrate inhibition by NAD+; oxidative reaction, 4.0 mM malate, 100 mM potassium phosphate pH 8.0.
Substrate in data set [3]: O=C(O)CC(=O)C(=O)O
Kind of data set: purified protein. The class given is biochemical, Synechocystis sp. PCC 6803. As to conditions: reductive reaction, 0.1 mM NADH, 100 mM potassium phosphate pH 6.5; no added effector; pH 6.5.

Substrate in data set [4]: NC(=O)C1=CN([C@@H]2O[C@H](COP(=O)(O)OP(=O)(O)OC[C@H]3O[C@@H](n4cnc5c(N)ncnc54)[C@H](O)[C@@H]3O)[C@@H](O)[C@H]2O)C=CC1
Kind of data set: purified protein. In kind it is biochemical, Synechocystis sp. PCC 6803. As to conditions: reductive reaction, 0.1 mM oxaloacetate, 100 mM potassium phosphate pH 6.5; pH 6.5.

Substrate in data set [5]: NC(=O)c1ccc[n+]([C@@H]2O[C@H](COP(=O)(O)OP(=O)(O)OC[C@H]3O[C@@H](n4cnc5c(N)ncnc54)[C@H](O)[C@@H]3O)[C@@H](O)[C@H]2O)c1
As to the kind of experiment: purified protein. In kind it is biochemical, Synechocystis sp. PCC 6803. As to conditions: oxidative reaction, 4.0 mM malate, 100 mM potassium phosphate pH 8.0; pH 8.0.

Substrate in data set [6]: O=C(O)C[C@H](O)C(=O)O
Kind of data set: purified protein. As to conditions: oxidative reaction, 8.0 mM NAD+, 100 mM potassium phosphate pH 8.0.

For the molecule `O=C(O)/C=C/C(=O)O` [fumarate], the activity at 1000 µM at SyMDH [1] was ~170%.

As to `NC(=O)c1ccc[n+]([C@@H]2O[C@H](COP(=O)(O)OP(=O)(O)OC[C@H]3O[C@@H](n4cnc5c(N)ncnc54)[C@H](O)[C@@H]3O)[C@@H](O)[C@H]2O)c1` [NAD^+], the Ki at SyMDH [2] turned out to be 14.5 mM.

B1: SyMDH (Synechocystis sp. PCC 6803 substr. Kazusa) (protein)
chain: MNILEYAPIACQSWQVTVVGAGNVGRTLAQRLVQQNVANVVLLDIVPGLPQGIALDLMAAQSVEEYDSKIIGTNEYEATAGSDVVVITAGLPRRPGMSRDDLLGKNANIVAQGAREALRYSPNAILIVVTNPLDVMTYLAWKVTGLPSQRVMGMAGVLDSARLKAFIAMKLGACPSDINTLVLGGHGDLMLPLPRYCTVSGVPITELIPPQTIEELVERTRNGGAEIAALLQTGTAYYAPASSAAVMVESILRNQSRILPAATYLDGAYGLKDIFLGVPCRLGCRGVEDILEVQLTPEEKAALHLSAEAVRLNIDVALAMVSDG
notes: full ORF in pGEX5X-1, N-terminal GST tag kept, E. coli expression, glutathione-Sepharose purification
For the molecule B1, the Km in the data set “purified protein [3]” was 12 µM; in “purified protein [4]” it was 30 µM; in the data set “purified protein [5]” it was 580 µM; in the data set “purified protein [6]”, 2600 µM. Besides, the kcat in the data set “purified protein [3]” was found to be 0.71 s⁻¹; in “purified protein [4]”, 0.97 s⁻¹; in the data set “purified protein [5]”, 0.21 s⁻¹; in “purified protein [6]”, 0.43 s⁻¹.

In general, Km refers to the substrate concentration at which the rate is half of its maximum. In general, kcat refers to the maximal rate divided by the concentration of active sites.
